Experiment [1] concerns the target T1, hexahistidine tagged human IL-4Rα ECD D66R (human, UniProt P24394 26-232).
T1 construct: also called D66R IL-4Rα; not shown: hexahistidine tag
Kind of experiment: capture ELISA, His-tagged receptor mutant. An excerpt:
Example 2d. […] Briefly, thirty surface amino acid residue substitutions were introduced individually into hexahistidine tagged human IL-4Rα extra cellular domain (ECD) as follows: K2D, E6R, K22D, P26R, T31R, F41A, L42G, L43G, E45R, E52R, G56R, D66R, A71R, Q82G, K87D, E94R, H107A, D108R, P124R, D125R, D143R, R148D, L155R, R160D, S164R, S168R, Q181R, P192R, K195D, or H197G. Each mutant protein having a single amino acid residue substitution as described above was transiently expressed in CHO cells and purified using standard immobilized metal affinity chromatography techniques. […] The plates were then washed 3 times with PBST and the exemplified human IL-4Rα antibody was added to the wells at a final concentration of 1 μg/mL in PBS-casein and incubated for 1 hour at room temperature. The plates were washed 3 times with PBST, the IL-4Rα mutant proteins were serially diluted 5-fold from 1 μg/mL for 3 points. in PBS-casein and added to the plate at 50 μL/well and incubated for 1 hour at room temperature. […] The plates were washed 3 times, TMB substrate (Pierce, Cat. #34028) was added per manufacturer instructions, the reaction was quenched with H₂SO₄, and absorbance was read at 450 nm on an ELISA plate reader.
In general terms: An ELISA detects its analyte on a solid surface through an enzyme-linked reagent.

Experiment [2] has as its target T2, hexahistidine-tagged human IL-4Rα extracellular domain (human, UniProt P24394 26-232).
T2 construct: In the MSD assay the plate coat is the His-tagged ECD; also called human IL-4Rα ECD; Wild type receptor; not shown: hexahistidine tag
T2 sequence: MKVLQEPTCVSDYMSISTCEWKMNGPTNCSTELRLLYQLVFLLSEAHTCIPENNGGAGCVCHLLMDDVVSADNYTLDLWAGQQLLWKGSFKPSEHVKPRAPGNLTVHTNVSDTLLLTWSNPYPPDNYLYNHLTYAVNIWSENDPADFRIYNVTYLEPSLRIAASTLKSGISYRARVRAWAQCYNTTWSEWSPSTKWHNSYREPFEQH
Kind of experiment: competition MSD ELISA (solution equilibrium, 37 °C), apparent KD, single experiment. As to the method:
(§1) Example 3a. […] A 96-well multi-array plate (Meso Scale Diagnostics, Cat. #L15XA-3) was coated at 4° C. overnight with 0.5 μg/mL hexahistidine-tagged human or cynomolgus monkey IL-4Rα ECD in phosphate buffered saline (PBS). Following coating, plates were washed 10 times with 200 μL PBST (PBS with 0.05% Tween® 20) and blocked with 300 μL/well of PBS casein blocking buffer (Pierce, Cat. #37528) at 37° C. for 1 hour. Plates were then washed 10 times as above, and 50 μL of the preincubated antibody:IL-4Rα dilution series was transferred to the wells and incubated at 37° C. with 300 rpm shaking for […]. Plates were washed 10 times with PBST, 50 μL of 1 μg/mL anti-human antibody sulfo-tag 20 (Meso Scale Diagnostics, Cat. #R32AJ-1) was added to the plates for the assay of Table 7a, and anti-Human NHP Kappa Light chain SULFO-TAG 20 (Meso Scale Diagnostics, Cat #D20TF-6) was added to the plates for the assay of Table 7b, and plates were incubated at 37° C. with 300 rpm shaking for 30 minutes. Plates were washed 10 times with PBST, 150 μL/well of 1× Read Buffer T was added to the wells and analyzed on a SECTOR® Imager 6000 (Meso Scale Diagnostics) 15 min after buffer addition. The apparent KD is determined by fitting a sigmoidal curve to the electrochemiluminescence (ECL) response vs. log (soluble IL-4Rα concentration) using GraphPad Prism 9. Data is graphed with normalized ECL values.

Experiment [3] has as its target T3, hexahistidine-tagged cynomolgus monkey IL-4Rα extracellular domain (cynomolgus monkey, UniProt P24394 26-231 (human entry)).
T3 construct: also called cynomolgus monkey IL-4Rα ECD; not shown: hexahistidine tag
T3 chain: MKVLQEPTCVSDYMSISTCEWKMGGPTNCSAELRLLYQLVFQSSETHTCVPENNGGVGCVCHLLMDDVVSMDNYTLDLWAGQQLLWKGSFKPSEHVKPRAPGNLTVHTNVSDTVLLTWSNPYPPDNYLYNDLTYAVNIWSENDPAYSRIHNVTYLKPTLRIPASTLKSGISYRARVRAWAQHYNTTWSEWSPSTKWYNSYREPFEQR
The experiment is described as above. As to the method: as §1

Experiment [4] concerns the target T4, hexahistidine tagged human IL-4Rα ECD T31R (human, UniProt P24394 26-232).
T4 construct: not shown: hexahistidine tag
Briefly: capture ELISA: Ab1 on anti-human IgG Fc, His-tagged receptor at 0.2 µg/mL, anti-His HRP. From the text:
(§2) Example 2d. […] Briefly, thirty surface amino acid residue substitutions were introduced individually into hexahistidine tagged human IL-4Rα extra cellular domain (ECD) as follows: K2D, E6R, K22D, P26R, T31R, F41A, L42G, L43G, E45R, E52R, G56R, D66R, A71R, Q82G, K87D, E94R, H107A, D108R, P124R, D125R, D143R, R148D, L155R, R160D, S164R, S168R, Q181R, P192R, K195D, or H197G. Each mutant protein having a single amino acid residue substitution as described above was transiently expressed in CHO cells and purified using standard immobilized metal affinity chromatography techniques. […] The plates were then washed 3 times with PBST and the exemplified human IL-4Rα antibody was added to the wells at a final concentration of 1 μg/mL in PBS-casein and incubated for 1 hour at room temperature. The plates were washed 3 times with PBST, the IL-4Rα mutant proteins were serially diluted 5-fold from 1 μg/mL for 3 points. in PBS-casein and added to the plate at 50 μL/well and incubated for 1 hour at room temperature. The plates were washed 3 times with PBST and a 1000-fold dilution of anti-histidine tag antibody HRP conjugate (R&D Systems, Cat. #MAB050H) in PBS-casein was added and incubated for 45 minutes at room temperature. The plates were washed 3 times, TMB substrate (Pierce, Cat. #34028) was added per manufacturer instructions, the reaction was quenched with H₂SO₄, and absorbance was read at 450 nm on an ELISA plate reader.

For experiment [5], the target named is T5, hexahistidine tagged human IL-4Rα ECD D125R (human, UniProt P24394 26-232).
T5 construct: not shown: hexahistidine tag
T5 sequence (P24394 26-232 D150R): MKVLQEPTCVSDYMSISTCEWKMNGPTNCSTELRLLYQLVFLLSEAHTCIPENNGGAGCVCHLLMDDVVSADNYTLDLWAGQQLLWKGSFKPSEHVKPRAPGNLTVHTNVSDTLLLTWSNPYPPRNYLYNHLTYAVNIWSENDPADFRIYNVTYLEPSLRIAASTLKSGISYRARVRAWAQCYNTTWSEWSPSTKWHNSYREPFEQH
The experiment is described as above.
Description: as §2

Experiment [6] deals with T6, hexahistidine tagged human IL-4Rα ECD R148D (human, UniProt P24394 26-232).
T6 construct: not shown: hexahistidine tag
T6 sequence (P24394 26-232 R173D): as the sequence (P24394 26-232 D150R) above, with R125D, R148D counted along it
The description is as above.
Description: as §2

The target in experiment [7] is T7, hexahistidine tagged human IL-4Rα ECD T108R (human, UniProt P24394 26-232).
T7 construct: also called D108R; not shown: hexahistidine tag
Kind of experiment: capture ELISA: Ab1 on anti-human IgG Fc, His-tagged receptor at 0.04 µg/mL, anti-His HRP.

Experiment [8] addresses T3, hexahistidine-tagged cynomolgus monkey …. Briefly: competition MSD ELISA (solution equilibrium, 37 °C), apparent KD, mean of 3 experiments. How it is done: as §1

T4 sequence (P24394 26-232 T56R): as the sequence (P24394 26-232 D150R) above, with T31R, R125D counted along it

B1: anti-human IL-4Rα antibody Ab1 (antibody, human IgG4 S228P, kappa)
heavy: QVQLVESGGGLVQPGGSLRLSCVASGFTFSHSSMNWVRQAPGKGLEWVSYISRATGAVYYADSVKGRFTISRDNAKNSLYLQMNSLRDEDTAVYYCAREPVFDYWGQGTLVTVSSASTKGPCVFPLAPCSRSTSESTAALGCLVKDYFPEPVTVSWNSGALTSGVHTFPAVLQSSGLYSLSSVVTVPSSSLGTKTYTCNVDHKPSNTKVDKRVESKYGPPCPPCPAPEFLGGPSVFLFPPKPKDTLMISRTPEVTCVVVDVSQEDPEVKFNWYVDGVEVHNAKTKPREEQFNSTYRVVSVLTVLHQDWLNGKEYKCKVSNKGLPSSIEKTISKAKGQPREPQVYTLPPSREEMTKNQVSLTCLVKGFYPSDICVEWESNGQPENNYKTTPPVLDSDGSFFLYSRLTVDKSRWQQGNVFSCSVMHEALHNHYTQKSLSLSLG
light: DIQMTQSPSAMSASVGDRVTITCRASQDISNYLAWFQQKPGKVPTRLIYAASSLQSGVPSRFSGSGSGTEFTLTISSLQPEDFATYYCLQWSSYPRTFGQGTKVEIKRTVAAPSVFIFPPSDEQLKSGTASVVCLLNNFYPREAKVQWKVDNALQSGNSQESVTEQDSKDSTYSLSSTLTLSKADYEKHKVYACEVTHQGLSSPVTKSFNRGEC
notes: human kappa light chain; also called anti-human IL-4Rα Ab1; unconjugated Ab1
Consider B1, for which the binding result in experiment [1] was “no binding (tested: 1 µg/mL)”. Moreover, the Kd in experiment [2] stood at 20.8 pM; in experiment [3] it was 23.3 pM. In addition, the “ELISA (OD450)” value in experiment [4] is 1.49 OD450; in experiment [5], 1.61 OD450; in experiment [6] it was 1.6 OD450; in experiment [7], 1.41 OD450.

B2: anti-human IL-4Rα Ab1 GC conjugate of Example 1b (n=4) (antibody, human IgG4 S228P, kappa)
heavy: B1 heavy
light: B1 light
modifications: glucocorticoid receptor agonist payload-linker (GC-L, Preparation 8) conjugated to the engineered cysteines at the 124 and 378 position of the heavy chain (EU numbering); n is 4 (average DAR 4.17 by RP-HPLC, 3.85 by TOF MS)
For the molecule B2, the Kd in experiment [8] was 45.8 pM.

The record behind these values is US20240100176A1 (Eli Lilly, published 2024).
